This is an account of results in patent publication US20240180855A1, “BIOACTIVE PRODUCTS” (priority 2021, published 2024).

The assay relates to wheat. The experiment in a line: Wheat growth after seed treatment with complexes of inhibitors and nucleases (Example 5). The following applies: seeds treated 1 hour at 37° C.; cultivation 23° C. The class given is in vivo. On the procedure:
Plant: wheat Treatment: The seeds were treated with various products for 1 hour, at 37° C. […] Cultivation temperature 23° C.

B1: Proteinase K: protease (protein, UniProt P06873 106-384, looked up)
Proteinase K: AAQTNAPWGLARISSTSPGTSTYYYDESAGQGSCVYVIDTGIEASHPEFEGRAQMVKTYYYSSRDGNGHGTHCAGTVGSRTYGVAKKTQLFGVKVLDDNGSGQYSTIIAGMDFVASDKNNRNCPKGVVASLSLGGGYSSSVNSAAARLQSSGVMVAVAAGNNNADARNYSPASEPSVCTVGASDRYDRRSSFSNYGSVLDIFGPGTSILSTWIGGSTRSISGTSMATPHVAGLAAYLMTLGKTTAASACRYIADTANKGDLSNIPFGTVNLLAYNNYQA
For the molecule B1, the “Chlorophyll total” value is recorded as 35.2 mg/g, the “Emergence (%)” value is 42%, the Root lenght was 4.3 and the Shoot length is reported as 0.0.
